Results on 23 sequences are retold here after the DeepSol protein solubility set.

This series is described as follows: soluble on expression in E. coli; label from the status in PepcDB or PDB records.
As to “MEMEKEFEQIDKSGSWAAIYQDIRHEASDFPCRVAKLPKNKNRNRYRDVSPFDHSRIKLHQEDNDYINASLIKMEEAQRSYILTQGPLPNTCGHFWEMVWEQKSRGVVMLNRVMEKGSLKCAQYWPQKEEKEMIFEDTNLKLTLISEDIKSYYTVRQLELENLTTQETREILHFHYTTWPDFGVPESPASFLNFLFKVRESGSLSPEHGPVVVHCSAGIGRSGTFCLADTCLLLMDKRKDPSSVDIKKVLLDMRKFRMGLIATAEQLRFSYLAVIEGAKFIMGDSSVQDQWKELSHEDLEPPPEHIPPPPRPPKRILEPHNGKCREFFPN”, the “soluble on expression in E. coli” value is “soluble”.
With “MEMNRRRSRGFMIAKLMPFCKAVKSPTPSQDLYNNVHYTSSTTTSYARQPDFNNYVTATTPLPPKVSFLLQPSLAPEGKDMEKKLNMMAEKLIGRGINGVDDCVDARAASYISSVRERFKADQYCEKLTTVISLDDEN”, the “soluble on expression in E. coli” value was “soluble”.
The result for “MEMRELVGQFVERMQVLRHLVPILPDEQLYVRFESDDETALLLIGKESAARGMENDERKTLTVRGSKEALASLLNGELKLQQLVRLREVHVSGSFRQLLLLESLLHLAKPYRHVG” reads “not soluble”.
The result for “MENKYTHGVLFYHEHSGLKNINQGIGEVTTALSSICKHLSIQLSENEGDIIKYCQEIKTKNYAKDVDILFILGGDGTVNELINGVMTHDLQLPIGILPGGTFNDFTKTLNIAPNHKQASEQMISAQVGKYDVIKINNQYALNFVGLGLIVQNAENVQDGSKDIFGKLSYIGSTVKTLLNPTQFNYQLSIDDKTYSGETTMILTANGPFIGGSRIPLTDLSPQDGELNTFIFNEQSFSILNDIFKKRDSMNWNEITQGIEHIPGKKISLTTDPAMKVDIDGEISLETPIDIEVIPNAIQLLTVNDLLEHHHHHH” reads “not soluble”; that for “MENLYFQGLEHHHHHHENSSPYTSEHFHYTVTDIKDLTKLGAIYDKTKKYWVYQGKPVMPDQFTFELLDFLHQLTHLSFSKMKALLERSHSPYYMLNRDRTLKNITETCKACAQVNASKS”, “soluble”; that for “MENPPAEPFFLDASPGKRFCLYHSPAGDTPLNQVFIYLHPFAEEMNKSRRMAALQAKAFAAMGFGVLQIDLYGCGDSAGDFGEATWEIWKNDVEFAYQWLIQQGFTSVHFWGLRLGALLALDYAGKAETGSAKFILWQPVINGKSFLTQFLRLRLVNKLLSDDSDKAQNVHLREELRAGKSLEIAGYTLSPAMAAAIDELKLGQLVVGNSEIYWFEITPEAGRGLPPAGAAVVEAWNQSGVYPEVTLIPGLPFWATQEISECPALLAATAKLFAGIQP”, “not soluble”.
Regarding “MENQDYTVRLTVQASPQEVFKQINRVTAWWTKNLQGDSEKLNDVFTVNFPGMHVSTQKLIECIPDKKVTWMVTDSHLTFIQRKTEWTDTTIQFDISRNVKHTEVLFTHKGLNPAIECYGDCAKGWDYFIKGSLFKLLTEGTGTPELEHHHHHH”, the “soluble on expression in E. coli” value is given as “soluble”.
The result for “MENVTNFPLLQLPSKTIQVVLSIMSPFELINFSKSSAEAKKVVKQFANAKRRELYKFKVCIGLIPFVAFV” reads “not soluble”; that for “MEPHSLRYNLMVLSQDESVQSGFLAEGHLDGQPFLRYDRQKRRAKPQGQWAEDVLGAETWDTETEDLTENGQDLRRTLTHIKDQKGGLHSLQEIRVCEIHEDSSTRGSRHFYYNGELFLSQNLETQESTVPQSSRAQTLAMNVTNFWKEDAMKTKTHYRAMQADCLQKLQRYLKSGVAIRRTVPPMVNVTCSEVSEGNITVTCRASSFYPRNITLTWRQDGVSLSHNTQQWGDVLPDGNGTYQTWVATRIRQGEEQRFTCYMEHSGNHGTHPVPSGKVLVLQSQRTDFPYVSAAMPCFVIIIILCVPCCKKKTSAAEGP”, “soluble”.
The result for “MEPSSLELPADTVQRIAAELKCHPTDERVALHLDEEDKLRHFRECFYIPKIQDLPPVDLSLVNKDENAIYFLGNSLGLQPKMVKTYLEEELDKWAKIAAYGHEVGKRPWITGDESIVGLMKDIVGANEKEIALMNALTVNLHLLMLSFFKPTPKRYKILLEAKAFPSDHYAIESQLQLHGLNIEESMRMIKPREGEETLRIEDILEVIEKEGDSIAVILFSGVHFYTGQHFNIPAITKAGQAKGCYVGFDLAHAVGNVELYLHDWGVDFACWCSYKYLNAGAGGIAGAFIHEKHAHTIKPALVGWFGHELSTRFKMDNKLQLIPGVCGFRISNPPILLVCSLHASLEIFKQATMKALRKKSVLLTGYLEYLIKHNYGKDKAATKKPVVNIITPSHVEERGCQLTITFSVPNKDVFQELEKRGVVCDKRNPNGIRVAPVPLYNSFHDVYKFTNLLTSILDSAETKN” reads “soluble”; that for “MEPTEKSMLLETTSTTKMETKYEDMLPVMAEKMDVEEFVSELCKGFSLLADPERHLITAESLRRNSGILGIEGMSKEDAQGMVREGDLDGDGALNQTEFCVLMVRLSPEMMEDAETWLEKALTQELCNHNLSSMP”, “soluble”.
Consider “MEQLQVGQVTLTWLNGGVTHLDGGAMFGVVPKPLWSKKYPPNDQNQIELRTDPILVEAGGKRLLIESGIGNGKLTDKQKRNFGVTEESSLDESLAALGLTRGDIDIVIMTHLHFDHACGLTVWEDGRLVPAFPRAAIITSDVEWEEMRAPNIRSRNTYWKENWEPIAEQVIPFTKETEVVSGIRLIHTGGHSAGHAIVLIESDGEMAIHLGDLLGTHAHQNVLWVMAYDDYPMDSIFAKQRWLPYGIERNAWFTFYHDAYYRAVKWREDGTIAEQVKRNRPTLLEHHHHHH”, for which the “soluble on expression in E. coli” value is “soluble”.
For “MEQPKYKRVVLKLSGEALAGKQGFGIQPAVIQSIAKQVKEVVELGVEVAIVVGGGNIWRGKTGSEMGMDRATADYMGMLATVMNALALQDSLEQLGVETRVQTSIEMRQVAEPYIRRRAIRHLEKKRVVIFAAGTGNPYFSTDTTAALRAAEIEADVILMAKNNVDGVYSADPNVDANALKYDELSYLDVIKQGLGVMDSTASSLCMDNNIPLIVFSIMEEGNIKRAVLGENIGTIVRGK” the value was “not soluble”; for “MEQRRVTDFFARRRPGPPRIAPPKLACRTPSPARPALRAPASATSGSRKRARPPAAPGRDQARPPARRRLRLSVDEVSSPSTPEAPDIPACPSPGQKIKKSTPAAGQPPHLTSAQDQDTISELASCLQRARELGARVRALKASAQDAGESCTPEAEGRPEEPCGEKAPAYQRFHALAQPGLPGLVLPYKYQVLAEMFRSMDTIVGMLHNRSETPTFAKVQRGVQDMMRRRFEERNVGQIKTVYPASYRFRQERSVPTFKDGTRRSDYQLTIEPLLEQEADGAAPQLTASRLLQRRQIFSQKLVEHVKEHHKAFLASLSPAMVVPEDQLTRWHPRFNVDEVPDIEPAALPQPPATEKLTTAQEVLARARNLISPRMEKALSQLALRSAAPSSPGSPRPALPATPPATPPAASPSALKGVSQDLLERIRAKEAQKQLAQMTRCPEQEQRLQRLERLPELARVLRSVFVSERKPALSMEVACARMVGSCCTIMSPGEMEKHLLLLSELLPDWLSLHRIRTDTYVKLDKAADLAHITARLAHQTRAEEGL”, “soluble”.
For “MERDRISALKRSFEVEEVETPNSTPPRRVQTPLLRATVASSTQKFQDLGVKNSEPSARHVDSLSQRSPKASLRRVELSGPKAAEPVSRRTELSIDISSKQVENAGAIGPSRFGLKRAEVLGHKTPEPAPRRTEITIVKPQESAHRRMEPPASKVPEVPTAPATDAAPKRVEIQMPKPAEAPTAPSPAQTLENSEPAPVSQLQSRLEPKPQPPVAEATPRSQEATEAAPSCVGDMADTPRDAGLKQAPASRNEKAPVDFGYVGIDSILEQMRRKAMKQGFEFNIMVVGQSGLGKSTLINTLFKSKISRKSVQPTSEERIPKTIEIKSITHDIEEKGVRMKLTVIDTPGFGDHINNENCWQPIMKFINDQYEKYLQEEVNINRKKRIPDTRVHCCLYFIPATGHSLRPLDIEFMKRLSKVVNIVPVIAKADTLTLEERVHFKQRITADLLSNGIDVYPQKEFDEDSEDRLVNEKFREMIPFAVVGSDHEYQVNGKRILGRKTKWGTIEVENTTHCEFAYLRDLLIRTHMQNIKDITSSIHFEAYRVKRLNEGSSAMANGVEEKEPEAPEM” the value was “not soluble”.
Regarding “MERLQKVIARAGIASRRKAEELILQGRVKVNGRVVKELGVKVGPRDDVEVDGIPIEREEPVYYLLYKPRGVISSVKDDRGRKVVTDFFKDLDKRIYPIGRLDYDTSGLLLLTNDGDFANLLMHPRYEIEKVYIAKVKGIPTHEQLKRLEQGVQLEDGMTAPAKVKLLSADRKKGTAIVEIRIHEGRNRQVRRMFEAIGCEVLKLKRERYAFLDLKGLRPGEYRELTPHEVKLLRVLAQSGGRK”, the “soluble on expression in E. coli” value is given as “soluble”.
For “MERMRSIWKGSIAFGLVNVPVKVYSATEDHDIRFHQVHAKDGGRIKYNRVCSECGNVVQYADIDKAYDSDDGVRVVLTDDDFGKLPAAEKHEIPVLQFVPTEQIDPILFEKSYFLEPDSSSPKAYVLLATALENSDRTALVHFTLRQRTRLAAMRSRDGVLVIQTLLWPDEVRVAEFSSLDGVDK” the value was “not soluble”.
For “MERNELFDLQTLSTRRKIIDRIQVTRMNTGKVDLKTSEFFEQQETQTRSKKKYIWSTGKSKLRRHFFVNRTLPTMKQH” the value was “not soluble”.
For “MERRLIFGTIASKMSLAPEADLDSLIIRNDSLSGAVIAAIMQEAGLRAVRKNRYVILQSDLEEAYATQVKTDNTVDKFDFYK” the value was “soluble”.
Regarding “MERVNHLLQRLLGNQRFKQRYEQMKRYILEHPDVQPFLRAHERQLSADAVDRSLMKLYEFIEQHGNCRQCPGLERCNNMLPGYHPNLVVNGGRIDVEYDRCPKKVQHDERKRQESLIQSMFMPREILRASLSDVDLNDDGRIKAIRFAERFVAEYEPGKKMKGLYLHGSFGVGKTYLLAAIANELAKRNVSSLIVYVPELFREIKHSLQDQTMNEKLDYIKKVPVLMLDDLGAEAMSSWVRDDVFGPILQYRMFENLPTFFTSNFDMQQLAHHLTYSQRGEEEKVKAARIMERIRYLAYPIEITGPNRREQNI”, the “soluble on expression in E. coli” value was “not soluble”.
For “MERVPLLPRRFSARPQGNQEAQERTAVKCEQVRYAIQEVIGRGAFGEVSSAEVVGTRDLVAIKRVIHDGRLRQRELTLMRDHLGPNTQQGGVSSLDVGNGVGAHATSVTGSNGEEANGTTAIDGLESWNMPTIVPYHPCVVKLLDHFFASDPSGVQYLFMVMDYIPLDVRRLHHMFLRQREQQMPIILVKVIMFQLARALAFLHARGICHRDVKPNNILVDQETGVVKLCDFGSAKKMQAVGGEGPREKNVPYIFSRYYRAPELLLGSQYYHFHVDMWAFGCVLAELLCGKVLFKGSSSTMDQLVEIIKVLGKPSERELFALNPQSAGSALIRTWGDSHNASQLSPTPSGPLPSSNSANADYMQRRSAPRVKSLLWVEVLPPNTSQAALSLIEQLLRYTPEERLTSAEVLEHVFFDELFSDDARLPNGAPLPASMFQVTREEAEILPPWLLERMAAAEGVAKG” the value was “soluble”.
Regarding “MESCLDIFKIVIGPSSSRTVGPMRAACHFISLLREQETLPLIREIEIELYGALSLSRKCHNVDTALYLGLLGCQPENVDLRSYMAVIKRAENENKIELPLSDAGGITIKVKIIANHQAHPGHPYAMTFRARDDYFTVYEETWFSTGAGQVRKHGEPLTPSLPLRTVSPFEFSHAAQLLALCRRNGLSVAALMMKNELCRHSPQTLQNYLAQIWDVMQQAVYRGLHTEGVLPGPYQVPRRACALHKTLQANRSASDFLTALNWVNAFAIAVSEENASGGQIVTAPTNGACGIIPAALCWYDKFVTPLEPGALTRFFLTAAAIAMLFKQNASILGSEVGCQGEIGVACSMAAAGLAELMGASVEQTLSAAEIAMEHHLGLTCDPLGGQVQIPCIERNAISAVKAINAATMAMSRVSEPCISLDEIIAAMYETGKDMSAKYRETYHGSLGKIQPRKRG”, the “soluble on expression in E. coli” value is “not soluble”.
For “MESGFTACISIITGVKSIYRWKNNIEENQEIMCFFKTAEDTSSHSLYRGVITSS” the value was “not soluble”.
